Source: US20140228277A1 (Genentech, published 2014)
Positions of bridges follow the written chain, without caps; N, C: chain ends. No end group written: not given here.

Tests used:
[1] = molecular target: T1, recombinant human BACE1 (rhBACE1) (human, UniProt P56817 22-457, limits assumed); assay: cell-based or functional assay
[2] = molecular target: T1, recombinant human BACE1 (rhBACE1); assay: spot phage ELISA, plate-immobilized BACE1 against BSA

T1 sequence (P56817 22-457 limits assumed): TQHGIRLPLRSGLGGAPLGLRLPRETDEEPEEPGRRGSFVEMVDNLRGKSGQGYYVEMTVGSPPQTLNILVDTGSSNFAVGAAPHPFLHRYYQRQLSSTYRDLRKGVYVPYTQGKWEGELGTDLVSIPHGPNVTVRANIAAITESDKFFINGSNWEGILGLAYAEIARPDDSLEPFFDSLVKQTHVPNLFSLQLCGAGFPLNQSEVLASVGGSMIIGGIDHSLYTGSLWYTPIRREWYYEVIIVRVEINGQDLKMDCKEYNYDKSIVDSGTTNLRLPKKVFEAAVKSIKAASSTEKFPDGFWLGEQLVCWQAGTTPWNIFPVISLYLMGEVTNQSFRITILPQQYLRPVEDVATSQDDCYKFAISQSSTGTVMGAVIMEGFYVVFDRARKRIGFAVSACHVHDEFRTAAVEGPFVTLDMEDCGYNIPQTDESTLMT

Binder | Caliper (MCE) BACE1 activity assay IC50 [1] [µM] | fold improvement of signal/noise ratio over parent BACE017 [2] [fold]
Ac-YCRLLGIGCG-NH2 (disulfide 2-9 (inferred)) [BACE033] | 10.9 | –
KEESLYCRLLGLGCG (not fully specified (C-terminus, bridges); cysteine pairing not given here, not shown: M13 major coat protein; peptide fused to its N-terminus) [SEQ ID NO 89] | – | > 5
NEESIYCRLLGLGCG (not fully specified (C-terminus, bridges); cysteine pairing not given here, not shown: M13 major coat protein; peptide fused to its N-terminus) [SEQ ID NO 70] | – | > 5
AEESIYCRLLGLGCG (not fully specified (C-terminus, bridges); cysteine pairing not given here, not shown: M13 major coat protein; peptide fused to its N-terminus) [SEQ ID NO 91] | – | > 5
VEESIYCRLLGLGCG (not shown: M13 major coat protein; peptide fused to its N-terminus) [SEQ ID NO 74] | – | > 5
YEESIYCRLLGLGCG (not fully specified (C-terminus, bridges); cysteine pairing not given here, not shown: M13 major coat protein; peptide fused to its N-terminus) [SEQ ID NO 87] | – | > 5
YEESIYCRLLGIGCG (not fully specified (C-terminus, bridges); cysteine pairing not given here, not shown: M13 major coat protein; peptide fused to its N-terminus) [SEQ ID NO 83] | – | > 5
NEESIYCRLLGLACG (not fully specified (C-terminus, bridges); cysteine pairing not given here, not shown: M13 major coat protein; peptide fused to its N-terminus) [SEQ ID NO 72] | – | > 5
Ac-ESMYCALLGIGCG-NH2 (disulfide 5-12 (inferred)) [BACE057] | > 10 | –
KEDSMYCRLLGLGCG (not fully specified (C-terminus, bridges); cysteine pairing not given here, not shown: M13 major coat protein; peptide fused to its N-terminus) [SEQ ID NO 73] | – | > 5
KEENIYCRLLSLGCS (not shown: M13 major coat protein; peptide fused to its N-terminus) [SEQ ID NO 71] | – | > 5
NDEHMYCRLLGLDCN (not fully specified (C-terminus, bridges); cysteine pairing not given here, not shown: M13 major coat protein; peptide fused to its N-terminus) [SEQ ID NO 94] | – | > 5
NEVSLYCRLLDLGCG (not fully specified (C-terminus, bridges); cysteine pairing not given here, not shown: M13 major coat protein; peptide fused to its N-terminus) [SEQ ID NO 92] | – | > 5
TEESIYCRLLGLGCD (not shown: M13 major coat protein; peptide fused to its N-terminus) [SEQ ID NO 90] | – | > 5
NMESVHCRLLGLGCG (not shown: M13 major coat protein; peptide fused to its N-terminus) [SEQ ID NO 69] | – | > 5
Ac-MYCRLLGIGCG-NH2 (disulfide 3-10 (inferred)) [BACE032] | 8.09 | –
NPENNYCRLLNLGCG (not shown: M13 major coat protein; peptide fused to its N-terminus) [SEQ ID NO 93] | – | > 5
NDENMYCRLLGLGCA (not fully specified (C-terminus, bridges); cysteine pairing not given here, not shown: M13 major coat protein; peptide fused to its N-terminus) [SEQ ID NO 95] | – | > 5
